Numbering of substitutions follows the chain as printed.
B1: z2-XVT458-m1 (antibody, V domains shown)
VH: QVQLVQSGAEVKKPGASVKVSCKASGYTFTNFYIHWVRQAPGQGLEWMGSIYPNYGFTAYNQKFKDRVTMTVDTSTSTAYMELRSLRSDDTAVYYCARGYSYAMDYWGQGTTVTVSS
VL: DIQMTQSPSSVSASVGDRVTITCSASQGIWGDLNWYQQKPGKAPKLLIYHTSQLHSDVPSRFSGSGSGTDFTLTISSLQPEDFATYYCQGYSKDLLTFGGGTKLEIK
notes: IgG format; also called XVT458-z2-m1; XVT458-z2-ml
B2: z2-XVT458-m6 (antibody, V domains shown)
VH: B1 VH with F57I
VL: B1 VL with W30S
notes: IgG format; also called XVT458-z2-m6; XVT458-Z2-m6
B3: z2-XVT458-m3 (antibody, V domains shown)
VH: B1 VH with S50R, F57I
VL: B1 VL with W30S, L54R
notes: IgG format; also called XVT458-z2-m3; XVT458-Z2-M3

target: T1, human PD-1 expressed on cells (human, UniProt Q15116 25-288); experiment: Retrogenix cell microarray, HEK293 cells
T1 construct: whole, on cells; also called hPD-1; PDCD1
T1 sequence (Q15116 25-288): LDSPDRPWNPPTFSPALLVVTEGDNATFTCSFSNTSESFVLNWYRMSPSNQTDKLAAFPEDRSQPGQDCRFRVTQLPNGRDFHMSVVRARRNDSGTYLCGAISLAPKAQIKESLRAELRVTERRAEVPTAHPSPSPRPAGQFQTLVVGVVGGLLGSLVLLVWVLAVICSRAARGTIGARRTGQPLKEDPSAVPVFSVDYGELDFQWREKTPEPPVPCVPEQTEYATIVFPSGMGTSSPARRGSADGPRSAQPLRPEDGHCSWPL

Row | binding result | Binder
1 | binds | B1
2 | binds | B2
3 | binds | B3

target: T2, hPD-1 Avi-Tag Biotin (AcroBiosystems, PD1-H82E4) (human, UniProt Q15116 25-167, biotin on Avi-Tag); experiment: IgG format; ELISA / SPR
T2 construct: bought; also called recombinant hPD-1
T2 sequence (Q15116 25-167 limits assumed): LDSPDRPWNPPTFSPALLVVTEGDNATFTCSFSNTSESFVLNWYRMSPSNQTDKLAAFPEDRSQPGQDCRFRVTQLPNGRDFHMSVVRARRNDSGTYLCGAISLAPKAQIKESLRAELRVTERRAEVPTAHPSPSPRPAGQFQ

Row | binding result | Binder
4 | binds | B1
5 | binds | B2
6 | binds | B3

Reference: patent EP4431525A1 (Anaveon AG, dated 2024)
